From US20180118846A1 (published 2018) come the findings set out here.

Test [1] addresses T1, human Trop-2 (human, UniProt P09758 27-323).
T1 sequence (looked up): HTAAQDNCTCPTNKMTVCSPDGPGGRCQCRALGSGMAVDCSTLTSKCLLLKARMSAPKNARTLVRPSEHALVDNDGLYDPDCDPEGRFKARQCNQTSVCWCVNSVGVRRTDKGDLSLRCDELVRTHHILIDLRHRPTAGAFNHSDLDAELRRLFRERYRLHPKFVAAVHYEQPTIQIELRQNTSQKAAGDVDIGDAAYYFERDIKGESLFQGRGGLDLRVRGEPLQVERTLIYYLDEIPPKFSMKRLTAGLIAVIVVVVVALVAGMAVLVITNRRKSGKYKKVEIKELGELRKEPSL
Briefly: cell-based or functional assay.

The target of test [2] is T1, human Trop-2. Briefly: cell-based or functional assay. The source holds these as a separate data set.
A further test concerns the target T2, mouse Trop-2 (mouse, UniProt Q8BGV3 25-270, limits assumed).
T2 sequence (looked up): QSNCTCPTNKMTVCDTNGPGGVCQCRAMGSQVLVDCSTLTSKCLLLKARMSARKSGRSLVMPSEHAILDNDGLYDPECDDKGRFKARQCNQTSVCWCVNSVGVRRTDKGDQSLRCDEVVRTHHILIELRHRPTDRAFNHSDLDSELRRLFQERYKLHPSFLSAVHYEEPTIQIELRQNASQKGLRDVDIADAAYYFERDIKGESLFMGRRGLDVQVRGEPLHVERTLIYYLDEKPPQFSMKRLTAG
Briefly: not described (data not shown).

In a further test the target is mouse CD3 (mouse, UniProt P22646 22-108). Briefly: not described (data not shown).
Sequence of mouse CD3 (P22646 22-108): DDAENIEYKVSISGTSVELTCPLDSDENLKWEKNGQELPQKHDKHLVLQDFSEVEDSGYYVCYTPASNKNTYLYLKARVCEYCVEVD

B1: (E1)-3s, anti-Trop-2 x anti-CD3 trivalent bispecific DNL complex (two CH1-DDD2-Fab-hRS7 + one scFv-AD2-Okt3) (bispecific antibody)
heavy (part 1 of 2): QVQLQQSGSELKKPGASVKVSCKASGYTFTNYGMNWVKQAPGQGLKWMGWINTYTGEPTYTDDFKGRFAFSLDTSVSTAYLQISSLKADDTAVYFCARGGFGSSYWYFDVWGQGSLVTVSS
heavy (part 2 of 2): not shown
light: DIQLTQSPSSLSASVGDRVSITCKASQDVSIAVAWYQQKPGKAPKLLIYSASYRYTGVPDRFSGSGSGTDFTLTISSLQPEDFAVYYCQQHYITPLTFGAGTKVEIK
scFv: not shown
notes: also called (E1)-35; TROP2-targeting bsAb; not shown: human CH1, first 4 hinge residues and Gly/Ser linker; human kappa constant domain
As for B1, in the test with human Trop-2 [1], the “T-cell killing of BxPC3, IC50” value was 0.4 pM; the “T-cell lysis of NCI-N87, very active donor, IC50” value was 0.37 pM; the “T-cell lysis of NCI-N87, very active donor, with 0.1 nM 20*-2b, IC50” value was 0.05 pM; the “T-cell lysis of NCI-N87, very active donor, with 0.1 nM peginterferonalfa-2a, IC50” value came out at 0.14 pM. Moreover, in the test with human Trop-2 [1], the “T-cell lysis of NCI-N87, very weak donor T cells, EC50” value came out at 39 pM; the “T-cell lysis of NCI-N87, very weak donor T cells, with peginterferonalfa-2a, EC50” value worked out at 1.4 pM; the “T-cell mediated lysis of Capan-1, IC50” value worked out at 29 pM; the “T-cell mediated lysis of NCI-N87, IC50” value came to 0.85 pM. In the test with human Trop-2 [2], the “ex vivo T cell redirected killing of BxPC3, donor 1, IC50” value is 1.06 pM; the “ex vivo T cell redirected killing of BxPC3, donor 2, IC50” value is 0.56 pM; the “ex vivo T cell redirected killing of BxPC3, donor 3, IC50” value is 0.32 pM; the “ex vivo T cell redirected killing of Capan-1, donor 1, IC50” value was 35.6 pM. Also, in the test with human Trop-2 [2], the “ex vivo T cell redirected killing of Capan-1, donor 2, IC50” value is 248 pM; the “ex vivo T cell redirected killing of Capan-1, donor 4, IC50” value came to 8.51 pM; the “ex vivo T cell redirected killing of NCI-N87, donor 1, IC50” value is 6.76 pM; the “ex vivo T cell redirected killing of NCI-N87, donor 2, IC50” value turned out to be 34 pM. In the test with mouse Trop-2, the binding result is reported as “no binding”. Further, the binding result in the test with mouse CD3 was “no binding”.
